Results on 83 variants are retold here after the RNAGym collection of RNA variant scans (doi:10.1021/acssynbio.7b00057).

The labels stand for the following.
B1: Pistol ribozyme (parent)
chain: GGGUCGUUGUUCCAUAAUCGCGUGGAUAUGGCACGCAAGUUUCUACCGGGCACCGUAAAUGUCCGACUGGAGCCGUUCGGGCGGCUAUAAACAGACCUCAGGCCCGAAGCGUGGCGGCACCUGCCGCCGGUGGUAAAAAAGAUCGGAAGAGCACACGUCU

This data set covers variants of B1. Briefly: aptazyme ON/OFF ratio, guanine; higher = stronger switching; co-transcriptional cleavage with and without guanine.
On to U7C U8A G9C U11C C12G C13U, for which the “aptazyme ON/OFF ratio” value came to 1.1. As for U7C U8A G9C U11C C12G C13A, the “aptazyme ON/OFF ratio” value turned out to be 1.07. Under U7C U8A G9C U11C C12G C13G stands 1.12. Under U7C U8A G9C U11C C12U C13A stands 1.11; under U7C U8A G9C U11C C12U C13U, 1.12. As to U7C U8A G9C U11C C12U C13G, the “aptazyme ON/OFF ratio” value stood at 1.06. U7C U8A G9C U11A C12A: the “aptazyme ON/OFF ratio” value is 1.1. As to U7C U8A G9C U11A C12U, the “aptazyme ON/OFF ratio” value is 1.15. In the case of U7C U8A G9C U11A C12G, the “aptazyme ON/OFF ratio” value was 1.12. Take U7C U8A G9C U10C C12G C13A: the “aptazyme ON/OFF ratio” value was found to be 1.06.

Regarding U7C U8A G9C U10C C12G C13U, the “aptazyme ON/OFF ratio” value came to 1.07. Take U7C U8A G9C U10C C12G C13G: the “aptazyme ON/OFF ratio” value amounted to 1.07. Consider U7C U8A G9C U10G U11A C12A C13U, for which the “aptazyme ON/OFF ratio” value came out at 1.33. For U7C U8A G9C U10G U11A C12A C13A, the “aptazyme ON/OFF ratio” value amounted to 1.17. U7C U8A G9C U10G U11A C12A C13G: the “aptazyme ON/OFF ratio” value was found to be 1.13. Under U7C U8A G9C U10C U11G C12A C13G stands 1.17; under U7C U8A G9C U10C U11G C12A C13U, 1.08. Take U7C U8A G9C U10C U11G C12A C13A: the “aptazyme ON/OFF ratio” value stood at 1.21. In the case of U7C U8A G9C U11C C12A, the “aptazyme ON/OFF ratio” value is 1.11. Under U7C U8A G9C U11C C12G stands 1.11; under U7C U8A G9C U11C C12U, 1.14; under U7C U8A G9C U10G U11C C12U C13U, 1.34. As for U7C U8A G9C U10G U11C C12U C13A, the “aptazyme ON/OFF ratio” value was 1.19.

For U7C U8A G9C U10G U11C C12U C13G, the “aptazyme ON/OFF ratio” value is 1.27. Turning to U7C U8A G9C U10C U11A C12G C13G, the “aptazyme ON/OFF ratio” value is 1.1. Regarding U7C U8A G9C U10C U11A C12G C13A, the “aptazyme ON/OFF ratio” value was 1.1. Under U7C U8A G9C U10C U11A C12G C13U stands 1.12; under U7C U8A G9C U11C C12A C13U, 1.08; under U7C U8A G9C U11C C12A C13A, 1.04.

With U7C U8A G9C U11C C12A C13G, the “aptazyme ON/OFF ratio” value was 1.07. With U7C U8A G9C U11G C12G C13U, the “aptazyme ON/OFF ratio” value amounted to 1.05. Under U7C U8A G9C U11G C12G C13A stands 1.1; under U7C U8A G9C U11G C12G C13G, 1.07; under U7C U8A G9C U10G C13U, 1.35.

In the case of U7C U8A G9C U10G C13A, the “aptazyme ON/OFF ratio” value is 1.15.

As for U7C U8A G9C U10G C13G, the “aptazyme ON/OFF ratio” value was determined as 1.11. Take U7C U8A G9C U10C U11G C12A: the “aptazyme ON/OFF ratio” value was 1.11. Under U7C U8A G9C U10C U11G C12U stands 1.08; under U7C U8A G9C U10C U11G C12G, 1.09; under U7C U8A G9C U11A, 1.05. Take U7C U8A G9C U11G: the “aptazyme ON/OFF ratio” value was determined as 1.13. U7C U8A G9C U11C: the “aptazyme ON/OFF ratio” value worked out at 1.04. As to U7C U8A G9C U10C C12U C13A, the “aptazyme ON/OFF ratio” value was 1.06. As for U7C U8A G9C U10C C12U C13U, the “aptazyme ON/OFF ratio” value is 1.05. Regarding U7C U8A G9C U10C C12U C13G, the “aptazyme ON/OFF ratio” value came to 1.06.

As for U7C U8A G9C U10C U11G C12G C13G, the “aptazyme ON/OFF ratio” value was 1.11. Regarding U7C U8A G9C U10C U11G C12G C13A, the “aptazyme ON/OFF ratio” value is 1.11.

Consider U7C U8A G9C U10C U11G C12G C13U, for which the “aptazyme ON/OFF ratio” value stood at 1.07.

U7C U8A G9C U10G U11A C12G C13G: the “aptazyme ON/OFF ratio” value is 1.19. In the case of U7C U8A G9C U10G U11A C12G C13U, the “aptazyme ON/OFF ratio” value stood at 1.13. As to U7C U8A G9C U10G U11A C12G C13A, the “aptazyme ON/OFF ratio” value turned out to be 1.1. As to U7C U8A G9C U10G C12G C13U, the “aptazyme ON/OFF ratio” value worked out at 1.15.

For U7C U8A G9C U10G C12G C13A, the “aptazyme ON/OFF ratio” value was 1.32. Under U7C U8A G9C U10G C12G C13G stands 1.13; under U7C U8A G9C U11A C12U C13G, 1.1; under U7C U8A G9C U11A C12U C13U, 1.2.

For U7C U8A G9C U11A C12U C13A, the “aptazyme ON/OFF ratio” value amounted to 1.16.

For the variant U7C U8A G9C U11A C12G C13G, the “aptazyme ON/OFF ratio” value came out at 1.17. As to U7C U8A G9C U11A C12G C13U, the “aptazyme ON/OFF ratio” value was determined as 1.14. As for U7C U8A G9C U11A C12G C13A, the “aptazyme ON/OFF ratio” value came out at 1.13. Under U7C U8A G9C U10C U11A stands 0.786; under U7C U8A G9C U10C U11G, 0.891. With U7C U8A G9C U10C U11C, the “aptazyme ON/OFF ratio” value turned out to be 1.01. U7C U8A G9C U10G U11C C12A C13G: the “aptazyme ON/OFF ratio” value worked out at 1.21. Regarding U7C U8A G9C U10G U11C C12A C13U, the “aptazyme ON/OFF ratio” value amounted to 1.43. U7C U8A G9C U10G U11C C12A C13A: the “aptazyme ON/OFF ratio” value worked out at 1.36. Consider U7C U8A G9C U10G U11G C12A C13U, for which the “aptazyme ON/OFF ratio” value was determined as 1.06.

Take U7C U8A G9C U10G U11G C12A C13G: the “aptazyme ON/OFF ratio” value stood at 1.12. Under U7C U8A G9C U10G U11G C12A C13A stands 1.09. Turning to U7C U8A G9C U11A C13G, the “aptazyme ON/OFF ratio” value stood at 1.06. Under U7C U8A G9C U11A C13A stands 1.11. In the case of U7C U8A G9C U11A C13U, the “aptazyme ON/OFF ratio” value turned out to be 1.13.

Regarding U7C U8A G9C U10C U11A C12U C13U, the “aptazyme ON/OFF ratio” value was 1.04. Take U7C U8A G9C U10C U11A C12U C13A: the “aptazyme ON/OFF ratio” value was 1.04.

U7C U8A G9C U10C U11A C12U C13G: the “aptazyme ON/OFF ratio” value was 1.05. With U7C U8A G9C U10G U11G C13A, the “aptazyme ON/OFF ratio” value was found to be 1.13. For the variant U7C U8A G9C U10G U11G C13G, the “aptazyme ON/OFF ratio” value amounted to 1.11. For the variant U7C U8A G9C U10G U11G C13U, the “aptazyme ON/OFF ratio” value came out at 1.14.

As for U7C U8A G9C U10G U11G, the “aptazyme ON/OFF ratio” value was found to be 1.1. Under U7C U8A G9C U10G U11A stands 1.05. As for U7C U8A G9C U10G U11C, the “aptazyme ON/OFF ratio” value turned out to be 1.1. Under U7C U8A G9C U10G U11A C12U C13G stands 1.13; under U7C U8A G9C U10G U11A C12U C13U, 1.14.
